Reference: paper PMC10202830, “Cingulin and paracingulin tether myosins-2 to junctions to mechanoregulate the plasma membrane” (The Journal of Cell Biology, 2023)
Like-named read-outs stand apart in the source and are kept apart here. Values belong to the molecule of their own block, whether it stands above or below them.

How the values were obtained:
[1] = target: T1, His-tagged mZU5 (1520–1745) (mouse, UniProt P39447 1520-1745); test: MST; labelled target His-tagged mZU5 (1520–1745; red tris-NTA dye, 50 nM); GST-mCGN (1–112) or GST-mCGNL1 (1–122) 0–1,000 nM in PBS-T; Monolith NT.115 fit; n = 5
T1 construct: mouse ZO-1, residues 1520-1745 (ZU5-containing region); Labelled with the red tris-NTA dye through its His tag in the MST; also called ZU5-containing region of mZO-1 (residues 1520–1745); ZU5-containing fragment
T1 sequence (looked up): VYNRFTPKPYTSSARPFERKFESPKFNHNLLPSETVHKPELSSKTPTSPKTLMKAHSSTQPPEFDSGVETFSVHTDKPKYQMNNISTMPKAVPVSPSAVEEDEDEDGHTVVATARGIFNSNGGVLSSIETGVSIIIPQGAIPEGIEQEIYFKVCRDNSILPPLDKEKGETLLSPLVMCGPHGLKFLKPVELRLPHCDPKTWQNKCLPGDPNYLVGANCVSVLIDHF

[2] = target: His-tagged hCGN Rod2 (667–1203), purified (human) (UniProt Q9P2M7); test: MST; labelled target His-tagged hCGN Rod2 (red tris-NTA dye, 200 nM); ligands hNM2A rod or hNM2B rod 0–10,000 nM; PBS with 0.05% Tween 20; Monolith NT.115 fit; n = 7
[3] = target: T2, CGNL1 (Mus musculus (Mouse), UniProt Q6AW69); test: MST, GST-fusion ligands (GST dimer)
T2 chain: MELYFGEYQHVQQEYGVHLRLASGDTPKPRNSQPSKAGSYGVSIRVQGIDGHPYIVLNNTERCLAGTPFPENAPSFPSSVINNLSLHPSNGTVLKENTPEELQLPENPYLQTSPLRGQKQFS

[4] = target: T3, CGN (Mus musculus (Mouse), UniProt P59242); test: MST, GST-fusion ligands (GST dimer)
T3 chain: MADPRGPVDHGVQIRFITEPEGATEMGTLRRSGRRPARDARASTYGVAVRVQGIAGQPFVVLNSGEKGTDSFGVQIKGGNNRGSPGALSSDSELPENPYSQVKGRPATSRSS

[5] = target: T4, full-length hCGNL1 (10xHis-2xStrep), purified (human, UniProt Q0VF96 1-1302); test: pull-down; affinity purified GST-tagged cNM2A, cNM2B, cNM2C rod fragments as baits; His-tagged full-length CGN and CGNL1 purified from baculovirus-infected insect cells as preys; IB with anti-His (Fig. 1 H–J); settings: both partners purified
T4 construct: human paracingulin (CGNL1), 1–1,302aa, in pACEBac1; the plasmid list prints this construct as 'hCGN-FL-10xHis-2xStrep (1–1,302aa; S2518)'; also called His-tagged full-length CGNL1; purified CGNL1; source: baculovirus-infected insect cells, purified (StrepTag resin)
T4 sequence (looked up): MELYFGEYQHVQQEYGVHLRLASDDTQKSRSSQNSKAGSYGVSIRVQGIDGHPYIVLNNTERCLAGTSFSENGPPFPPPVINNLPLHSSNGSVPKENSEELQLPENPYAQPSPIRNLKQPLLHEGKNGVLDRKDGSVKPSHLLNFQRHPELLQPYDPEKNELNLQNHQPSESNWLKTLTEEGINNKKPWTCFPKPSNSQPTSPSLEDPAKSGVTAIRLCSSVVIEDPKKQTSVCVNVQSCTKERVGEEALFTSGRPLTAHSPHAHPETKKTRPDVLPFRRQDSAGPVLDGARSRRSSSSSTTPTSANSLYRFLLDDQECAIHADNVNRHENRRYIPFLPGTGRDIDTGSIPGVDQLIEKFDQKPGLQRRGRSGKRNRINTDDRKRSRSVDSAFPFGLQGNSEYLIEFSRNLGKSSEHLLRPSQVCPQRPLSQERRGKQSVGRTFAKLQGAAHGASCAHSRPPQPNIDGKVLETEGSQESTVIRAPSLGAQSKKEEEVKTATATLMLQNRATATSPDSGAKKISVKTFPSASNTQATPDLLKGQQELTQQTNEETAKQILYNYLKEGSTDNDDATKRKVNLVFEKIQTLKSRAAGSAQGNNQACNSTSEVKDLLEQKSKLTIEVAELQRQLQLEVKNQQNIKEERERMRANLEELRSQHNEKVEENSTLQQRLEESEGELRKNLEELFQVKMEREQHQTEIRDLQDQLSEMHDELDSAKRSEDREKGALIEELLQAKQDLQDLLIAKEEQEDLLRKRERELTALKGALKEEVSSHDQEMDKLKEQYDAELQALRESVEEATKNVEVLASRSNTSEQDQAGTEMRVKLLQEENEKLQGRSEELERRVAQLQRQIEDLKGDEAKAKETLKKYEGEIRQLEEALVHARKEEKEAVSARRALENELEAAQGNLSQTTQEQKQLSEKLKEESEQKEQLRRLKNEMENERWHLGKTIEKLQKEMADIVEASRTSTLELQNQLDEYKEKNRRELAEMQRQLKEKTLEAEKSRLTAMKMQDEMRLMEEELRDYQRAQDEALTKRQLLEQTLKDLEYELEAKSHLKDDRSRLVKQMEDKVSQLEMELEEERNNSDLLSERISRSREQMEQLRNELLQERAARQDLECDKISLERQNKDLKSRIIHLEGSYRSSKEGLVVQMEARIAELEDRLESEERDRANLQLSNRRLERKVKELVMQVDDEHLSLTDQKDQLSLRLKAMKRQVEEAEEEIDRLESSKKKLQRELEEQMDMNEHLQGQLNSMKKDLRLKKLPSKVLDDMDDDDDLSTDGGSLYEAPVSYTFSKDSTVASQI

Chain of His-tagged hCGN Rod2 (667–1203), purified (human) (Q9P2M7 667-1203): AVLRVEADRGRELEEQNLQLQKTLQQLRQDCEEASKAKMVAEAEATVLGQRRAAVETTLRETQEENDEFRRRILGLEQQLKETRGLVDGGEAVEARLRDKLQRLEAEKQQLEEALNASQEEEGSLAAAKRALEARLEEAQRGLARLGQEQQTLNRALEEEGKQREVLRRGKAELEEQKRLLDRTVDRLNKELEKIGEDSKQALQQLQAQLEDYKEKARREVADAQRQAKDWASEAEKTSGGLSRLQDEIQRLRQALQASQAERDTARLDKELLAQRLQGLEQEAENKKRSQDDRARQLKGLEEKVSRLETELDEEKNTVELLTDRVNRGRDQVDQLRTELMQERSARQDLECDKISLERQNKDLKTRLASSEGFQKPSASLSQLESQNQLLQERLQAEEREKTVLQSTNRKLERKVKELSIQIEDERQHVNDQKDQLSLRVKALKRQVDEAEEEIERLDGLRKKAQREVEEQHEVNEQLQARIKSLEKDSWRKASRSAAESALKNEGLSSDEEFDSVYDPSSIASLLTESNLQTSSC

Molecule: GST-mCGN (1–112) (from UniProt P59242 1-112) (domain or fragment)
- Kd [1]: 7.7 nM

B1: ZO1 (protein)
chain: EDEDEDGHTVVATARGIFNSNGGVLSSIETGVSIIIPQGAIPEGIEQEIYFKVCRDNSILPPLDKEKGETLLSPLVMCGPHGLKFLKPVELRLPHCDPKTWQNKCLPGDPNYLVGANCVSVLIDHF
- Kd [3]: 79.8 nM
- Kd [4]: 7.7 nM

B2: GST-cNM2A (1711–1960) (domain or fragment, canis (dog), UniProt Q258K2 1711-1960, looked up)
chain: ANSSGKGALALEEKRRLEARIAQLEEELEEEQGNTELVNDRLKKANLQIDQINTDLNLERSHAQKNENARQQLERQNKELKVKLQEMEGTVKSKYKASITALEAKIAQLEEQLDNETKERQAACKQVRRAEKKLKDVLLQVDDERRNAEQFKDQADKASTRLKQLKRQLEEAEEEAQRANASRRKLQRELEDATETADAMNREVSSLKNKLRRGDLPFVVPRRVARKGAGDCSDEEVDGKADGAEAKAAE
notes: canis nonmuscle myosin-2A heavy chain, rod and tail fragment 1711-1960; also called last 250 residues of NM2A; not shown: GST, N-terminal, kept
- binding result [5]: binds

B4: GST-mCGNL1 (1–122) (domain or fragment)
chain: T2 chain
- Kd ([1]; both partners purified): 79.8 nM

Next, values leading:

- Kd [2]: 3620 nM
Molecule: hNM2A rod (1330–1960), purified (from UniProt P35579 1330-1960) (domain or fragment)

- Kd [2]: 346 nM
Molecule: hNM2B rod (1337–1976), purified (from UniProt P35580 1337-1976) (domain or fragment)

- binding result [5]: binds
B3: GST-cNM2A (1461–1960) (domain or fragment, canis (dog), UniProt Q258K2 1461-1960, looked up)
chain: AEERDRAEAEAREKETKALSLARALEEAMEQKAELERLNKQFRTEMEDLMSSKDDVGKSVHELEKSKRALEQQVEEMKTQLEELEDELQATEDAKLRLEVNLQAMKAQFERDLQGRDEQSEEKKKQLVRQVREMEAELEDEKKQRSMAVAARKKLEMDLKDLEAHIDSANKNRDEAIKQLRKLQAQMKDCVRELDDTRASREEILAQAKENEKKMKSMEAEMIQLQEELAAAERAKRQAQQERDELADEIANSSGKGALALEEKRRLEARIAQLEEELEEEQGNTELVNDRLKKANLQIDQINTDLNLERSHAQKNENARQQLERQNKELKVKLQEMEGTVKSKYKASITALEAKIAQLEEQLDNETKERQAACKQVRRAEKKLKDVLLQVDDERRNAEQFKDQADKASTRLKQLKRQLEEAEEEAQRANASRRKLQRELEDATETADAMNREVSSLKNKLRRGDLPFVVPRRVARKGAGDCSDEEVDGKADGAEAKAAE
notes: canis nonmuscle myosin-2A heavy chain, rod fragment 1461-1960; also called NM2A rod bait, last ≈500 residues; not shown: GST, N-terminal, kept
